From patent publication US8304519B2, “Compositions and methods for modulating dopamine neurotransmission” (Centre for Addiction and Mental Health, priority 2005, dated 2012)

Tests used:
[1] = molecular target: T1, D2-DAT direct interaction (Homo sapiens, UniProt P14416); test: In vitro binding assay, blockade of GST-DAT[NT1] binding to [35S]-D2[IL3-2] by peptides; conditions: co-incubation with purified peptide
T1 construct: made in house; host or cells: bacteria (GST fusion, pGEX4T-3)
T1 sequence (P14416 271-373): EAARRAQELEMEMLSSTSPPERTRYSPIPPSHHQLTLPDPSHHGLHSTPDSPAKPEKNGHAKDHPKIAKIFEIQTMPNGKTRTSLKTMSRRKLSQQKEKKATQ
Experimental: (§1) Glutathione beads carrying GST fusion proteins (DAT[NT1] (SEQ ID NO:7), DAT[NT2] (SEQ ID NO:9), DAT[NT3] (SEQ ID NO: 10)) or GST (10-20 μg each) alone was incubated with [35S]-methionine-labelled D2[IL3-2] probe (SEQ ID NO:3) respectively. The beads were then washed 4-6 times with PBS containing 0.5% Triton X-100 and eluted with 10 mM glutathione elution buffer. Eluates were separated by SDS-PAGE and visualized by autoradiography.

[35S]-D2[IL3-2] = molecular target: T2, [35S]-D2[IL3-2] (Homo sapiens, UniProt P14416); test: In vitro binding assay of GST-DAT fusion proteins with [35S]-D2[IL3-2] probe; conditions: autoradiography
T2 construct: made in house
T2 sequence (P14416 271-373): T1 sequence (P14416 271-373)
Experimental: as §1

D2-DAT coupling = molecular target: T3, D2-DAT coupling (Homo sapiens, UniProt P14416); test: [3H]DA uptake in rat midbrain primary cultures infected with DAT and D2 adenovirus; assay type: cell-based; conditions: 10 μM for 30 minutes, cultured neurons
T3 construct: expressed in transfected cells; host or cells: primary rat midbrain neuronal cultures, adenoviral infection
Experimental: Measurement of DA uptake was performed on intact cells as previously described (30). Briefly, 2-4 days following transfection in 24-well plates (˜2×10^5 cells seeded per well) medium was removed and wells were rinsed with 0.5 mL of uptake buffer (5 mM Tris, 7.5 mM HEPES, 120 mM NaCl, 5.4 mM KCl, 1.2 mM CaCl2, 1.2 mM MgSO4, 1 mM ascorbic acid, 5 mM glucose, pH 7.1). […] (final concentration) and incubated for 10 min at room temperature in a total volume of 0.5 mL. Nonspecific [3H] DA (37-53 Ci/mmol) uptake was defined in the presence of 10 μM mazindol. Wells were rinsed twice with 0.5 mL of uptake buffer and cells were solubilized in 0.5 mL of 1% SDS and collected to measure incorporated radioactivity using a Beckman liquid scintillation counter (LS 6000SC).
(§2) Midbrain cultures from postnatal day 2 rats are prepared by dissection of ventrolateral sections of the mesencephalon (avoiding medial tissue regions) in ice-cold HBSS. Tissue is placed in cold neurobasal/B27 medium (Invitrogen) supplemented with 0.5 mM L-glutamine, and 10 ng/mL bFGF (culture medium). […] The single cell suspensions are counted with a hemocytometer for plating at desired densities onto poly-D-Lysine (100 ug/mL) coated tissue culture plates of varying formats or, onto coated glass cover-slips for microscopy. […]

[2] = Amphetamine-induced hyper-locomotor activity; assay type: in vivo; conditions: ip injection, 3 nmol/g
Experimental: Tests of locomotor activity were conducted in four clear Plexiglas activity chambers (Med Associates Inc., St Albans, Vt.) measuring 43 cm long, 43 cm wide, and 30 cm high. An array of 16×16 photodetectors, spaced 2.5 cm apart, and positioned 2.5 cm above the floor of the chamber was used to detect horizontal locomotor activity as distance traveled. Prior to testing, all mice were first habituated to the apparatus by placing them in the activity chambers for 1 h on three consecutive days. On test days, mice were placed in the activity chamber for 1 h prior to receiving an IP injection of TAT (SEQ ID NO:14), TAT-DAT[NT1-1] (SEQ ID NO:12), or TAT-DAT[NT1-2] peptide (SEQ ID NO: 13). Locomotor activity was then measured for the next 180 min.

[3] = systemically injected; cited from earlier work
D2 receptor [4] = molecular target: T4, D2 receptor (Homo sapiens, UniProt P14416); test: cAMP accumulation in cells co-expressing D2 with DAT; assay type: cell-based; parameters: expressed in transfected cells; host or cells: HEK-293 cells co-expressing D2 and DAT; conditions: data not shown
D2 receptor [5] = molecular target: T4, D2 receptor; assay type: cell-based; parameters: expressed in transfected cells; host or cells: HEK-293 cells co-expressing D2 and DAT; conditions: pre-incubation 150-200 ng/ml, HEK-293 cells co-expressing D2 and DAT
Experimental: Measurement of DA uptake was performed on intact cells as previously described (30). Briefly, 2-4 days following transfection in 24-well plates (˜2×10^5 cells seeded per well) medium was removed and wells were rinsed with 0.5 mL of uptake buffer (5 mM Tris, 7.5 mM HEPES, 120 mM NaCl, 5.4 mM KCl, 1.2 mM CaCl2, 1.2 mM MgSO4, 1 mM ascorbic acid, 5 mM glucose, pH 7.1). […] Wells were rinsed twice with 0.5 mL of uptake buffer and cells were solubilized in 0.5 mL of 1% SDS and collected to measure incorporated radioactivity using a Beckman liquid scintillation counter (LS 6000SC).

D2 receptor [6] = molecular target: T4, D2 receptor; test: Cell-ELISA of DAT membrane expression on D2 activation in cultured midbrain neurons; assay type: cell-based, rat; parameters: expressed in transfected cells; host or cells: primary rat midbrain neuronal cultures, adenoviral infection; conditions: cultured midbrain neurons infected with D2 and DAT adenoviruses
Experimental: Cell-ELISA assays (colorimetric assays) were done essentially as previously described (Lee et al., 2002a). Neurons or HEK-293T cells were transiently transfected with the indicated cDNA constructs by the Lipofectamine 2000 (InVitrogen) method (6-10 μg of each indicated cDNA per 7.5×10^6 cells), and equally distributed to two 6-well plates (35 mm/well), and grown for 2-4 days. The same density of co-transfected cells were fixed in 4% paraformaldehyde for 10 min in the absence (non-permeabilized conditions) or the presence (permeabilized conditions) of 1% Triton X-100. Cells were incubated with DAT antibody against the extracellular loop (Chemicon) for the purpose of labeling the proteins on the cell surface under non-permeabilized conditions or the entire transporter pool under permeabilized conditions. […] The cell surface expression of DAT was presented as the ratio of colorimetric readings under non-permeabilized conditions to those under permeabilized conditions. […]
as §2, with “HBSS.” for “HBSS. Tissue is placed in cold neurobasal/B27 medium (Invitrogen) supplemented with 0.5 mM L-glutamine, and 10 ng/mL bFGF (culture medium).”

D2 receptor [7] = molecular target: T4, D2 receptor; test: DA uptake on D2 activation in cultured midbrain neurons infected with D2 and DAT adenoviruses; assay type: cell-based, rat; parameters: expressed in transfected cells; host or cells: primary rat midbrain neuronal cultures, adenoviral infection
Experimental: Measurement of DA uptake was performed on intact cells as previously described (30). Briefly, 2-4 days following transfection in 24-well plates (˜2×10^5 cells seeded per well) medium was removed and wells were rinsed with 0.5 mL of uptake buffer (5 mM Tris, 7.5 mM HEPES, 120 mM NaCl, 5.4 mM KCl, 1.2 mM CaCl2, 1.2 mM MgSO4, 1 mM ascorbic acid, 5 mM glucose, pH 7.1). Cells were then preincubated in duplicate with the indicated concentrations of dopaminergic agents (10^−13 to 10^−4 M) 5 min prior to the addition of 0.25 mL of 20 nM [3H]DA (final concentration) and incubated for 10 min at room temperature in a total volume of 0.5 mL. Nonspecific [3H] DA (37-53 Ci/mmol) uptake was defined in the presence of 10 μM mazindol. Wells were rinsed twice with 0.5 mL of uptake buffer and cells were solubilized in 0.5 mL of 1% SDS and collected to measure incorporated radioactivity using a Beckman liquid scintillation counter (LS 6000SC).
as §2, with “HBSS.” for “HBSS. Tissue is placed in cold neurobasal/B27 medium (Invitrogen) supplemented with 0.5 mM L-glutamine, and 10 ng/mL bFGF (culture medium).”

T4 sequence (P14416 1-414 isoform P14416-2): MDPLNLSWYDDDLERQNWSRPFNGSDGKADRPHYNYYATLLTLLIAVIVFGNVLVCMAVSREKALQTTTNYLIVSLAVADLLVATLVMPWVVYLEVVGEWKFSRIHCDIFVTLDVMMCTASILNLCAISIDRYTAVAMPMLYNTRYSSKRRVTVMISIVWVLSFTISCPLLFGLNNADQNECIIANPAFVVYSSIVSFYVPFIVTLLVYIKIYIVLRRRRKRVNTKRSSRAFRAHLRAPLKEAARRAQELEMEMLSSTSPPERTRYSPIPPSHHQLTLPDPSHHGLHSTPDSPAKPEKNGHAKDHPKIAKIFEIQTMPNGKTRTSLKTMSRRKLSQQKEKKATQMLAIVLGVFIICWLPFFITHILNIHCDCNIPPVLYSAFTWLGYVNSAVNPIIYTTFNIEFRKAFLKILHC
T3 sequence (P14416 1-414 isoform P14416-2): as above

DAT[NT1-1] (M1-V15) peptide: purified peptide DAT M1-V15, MSKSKCSVGLMSSVV (SEQ ID NO:2) (Human dopamine transporter protein (DAT[NT1-1] M1-V15))
disruption of the interaction between [35S]-D2[IL3-2] and GST fused DAT[NT1] [1]: disrupted

GST fused DAT[NT1]: GST fusion protein encoding DAT M1-P26, MSKSKCSVGLMSSVVAPAKEPNAVGP (SEQ ID NO:7)
hybridization (direct binding) with [35S]-D2[IL3-2] ([35S]-D2[IL3-2]): hybridized

TAT-DAT[NT1-2] peptide: DAT[NT1-2] (A16-P26) peptide fused to HIV-1 TAT cell-membrane transduction domain (SEQ ID NO:13) (YGRKKRRQRRRAPAKEPNAVGP; HIV virus type 1 TAT protein fused to human dopamine transporter protein (TAT-DAT[NT1-2]))
DAT-mediated DA uptake (D2-DAT coupling): did not produce any effects | behavioural effects of amphetamine (hyper-locomotor activity) [2]: reduce

Tyr-Gly-Arg-Lys-Lys-Arg-Arg-Gln-Arg-Arg-Arg [TAT peptide]
time after IP injection at which the blood-brain barrier is penetrated [3]: 1 h

pertussis toxin (PTX)
functional block of the ability of the D2 receptor to inhibit cAMP accumulation (D2 receptor [4]): confirmed | blockade of quinpirole-induced decrease in DAT-mediated DA uptake (D2 receptor [5]): blocked | blockade of inhibition of DAT membrane expression by activation of D2 receptor (D2 receptor [6]): blocked | blockade of inhibition of DAT-mediated DA uptake by activation of D2 receptor (D2 receptor [7]): blocked
